The target in experiment [1] is phrGFP-ΔMUC16^c114 on SKOV3 cells (human). Description: FACS dot plot, surface staining, goat anti-mouse PE (FL2) against GFP (FL1); secondary antibody alone gives 0.55 in this quadrant.
For experiment [2], the target named is phrGFP-ΔMUC16^c334 on SKOV3 cells (human). Briefly: FACS dot plot, surface staining, goat anti-mouse PE (FL2) against GFP (FL1); secondary antibody alone gives 0.69 in this quadrant.
The target is the same in experiment [3]. Description: FACS dot plot, surface staining, goat anti-mouse PE (FL2) against GFP (FL1); secondary antibody alone gives 4.11 in this quadrant.
The target in experiment [4] is human MUC16 on OVCAR3 cells (human). Briefly: FACS dot plot, surface staining, goat anti-mouse PE (FL2) against GFP (FL1); secondary antibody alone gives 8.06 in this quadrant.
The target of experiment [5] is phrGFP-ΔMUC16^c114 on SKOV3 cells (human). Briefly: FACS dot plot, surface staining, goat anti-mouse PE (FL2) against GFP (FL1); secondary antibody alone gives about 0.9 in this quadrant.
Experiment [6] has as its target mouse MUC16 on ID8 and BR5-FVB1 cells (mouse). Briefly: FACS on ID8 (mouse) cells, second antibody alone.
Experiment [7] shares this target. Briefly: FACS on BR5-FVB1 (mouse) cells, second antibody alone.
Experiment [8] deals with phrGFP-ΔMUC16^c114 on SKOV3 cells (human). Briefly: FACS dot plot, surface staining, goat anti-mouse IgG PE (FL2) against GFP (FL1); secondary antibody alone gives 0.55 in this quadrant (FIG. 7A).
Experiment [9] deals with phrGFP-ΔMUC16^c334 on SKOV3 cells (human). Briefly: FACS dot plot, surface staining, goat anti-mouse IgG PE (FL2) against GFP (FL1); secondary antibody alone gives 0.69 in this quadrant (FIG. 7A).
The target is the same in experiment [10]. Description: FACS dot plot, surface staining, goat anti-mouse IgG PE (FL2) against GFP (FL1); secondary antibody alone gives 4.11 in this quadrant (FIG. 7A).
Experiment [11] concerns the target human MUC16 on OVCAR3 cells (human). Briefly: FACS dot plot, surface staining, goat anti-mouse IgG PE (FL2) against GFP (FL1); secondary antibody alone gives 8.06 in this quadrant (FIG. 7A).
For experiment [12], the target named is phrGFP-ΔMUC16^c114 on SKOV3 cells (human). Description: FACS dot plot, surface staining, goat anti-mouse IgG PE (FL2) against GFP (FL1); secondary antibody alone gives about 0.9 in this quadrant (FIG. 7A).
The target is the same in experiment [13]. Briefly: FACS dot plot, surface staining, goat anti-mouse PE (FL2) against GFP (FL1); secondary antibody alone gives 0.55 in this quadrant (FIG. 7A).
Experiment [14] has as its target phrGFP-ΔMUC16^c334 on SKOV3 cells (human). Briefly: FACS dot plot, surface staining, goat anti-mouse PE (FL2) against GFP (FL1); secondary antibody alone gives 0.69 in this quadrant (FIG. 7A).
Experiment [15] has the same target. Briefly: FACS dot plot, surface staining, goat anti-mouse PE (FL2) against GFP (FL1); secondary antibody alone gives 4.11 in this quadrant (FIG. 7A).
In experiment [16] the target is human MUC16 on OVCAR3 cells (human). Briefly: FACS dot plot, surface staining, goat anti-mouse PE (FL2) against GFP (FL1); secondary antibody alone gives 8.06 in this quadrant (FIG. 7A).
In experiment [17] the target is phrGFP-ΔMUC16^c114 on SKOV3 cells (human). Description: FACS dot plot, surface staining, goat anti-mouse PE (FL2) against GFP (FL1); secondary antibody alone gives about 0.9 in this quadrant (FIG. 7A).
The target of experiment [18] is T1, MUC16 Polypeptide 2 (human, not fully specified).
T1 construct: Synthetic peptide
T1 peptide: CTLDRSSVLVDGYSPNRNE
Description: ELISA on synthetic peptide, hybridoma sup 1:1. (In general: An ELISA detects its analyte on a solid surface through an enzyme-linked reagent.)

In experiment [19] the target is T2, Mouse MUC16-CD Peptide 1 (mouse, also: N-terminal Cys added for KLH conjugation of immunogen).
T2 construct: A cysteine was added at the N terminus for KLH conjugation of the immunogen
T2 peptide: TLDRKSVFVDGYSQNRDD
Briefly: ELISA of clone supernatant on individual mouse MUC16 peptides.

Where a chain is given by its changes, count along the chain named. Ends that are not written are not given here.

phrGFP-ΔMUC16^c114 on SKOV3 cells (human), sequence (chain, as listed by the source mutant limits assumed): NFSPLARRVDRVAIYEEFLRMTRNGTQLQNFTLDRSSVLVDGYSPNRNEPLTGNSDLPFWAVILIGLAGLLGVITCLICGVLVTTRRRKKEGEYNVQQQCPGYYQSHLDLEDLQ
mouse MUC16 on ID8 and BR5-FVB1 cells (mouse), sequence (chain, as listed by the source limits assumed): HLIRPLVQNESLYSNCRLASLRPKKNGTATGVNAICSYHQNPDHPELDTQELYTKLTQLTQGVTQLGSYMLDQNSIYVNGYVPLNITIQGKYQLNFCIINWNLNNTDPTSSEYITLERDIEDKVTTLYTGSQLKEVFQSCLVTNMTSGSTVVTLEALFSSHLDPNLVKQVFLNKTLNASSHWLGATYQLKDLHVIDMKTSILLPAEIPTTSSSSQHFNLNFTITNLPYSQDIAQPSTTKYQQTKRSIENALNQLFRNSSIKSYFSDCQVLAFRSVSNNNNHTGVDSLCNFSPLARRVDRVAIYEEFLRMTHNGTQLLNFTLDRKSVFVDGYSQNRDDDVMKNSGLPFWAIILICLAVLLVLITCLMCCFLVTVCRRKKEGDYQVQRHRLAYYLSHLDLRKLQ

Turning to OC125 (antibody), the % of events in the upper left quadrant (PE-positive, GFP-negative) was determined as 2.39% in experiment [1], 1.1% in experiment [2] and 97% in experiment [4]. Also, the % of events in the upper right quadrant (PE-positive, GFP-positive) stood at 25.4% in experiment [3] and 1.09% in [5].

Turning to G anti Mouse IgG2b-PE (antibody), the % of cells in the PE-positive gate in experiment [6] was determined as 4.53%; in experiment [7], 0.99%.

For the molecule VK8 (antibody), the values for the % of events in the upper left quadrant (PE-positive, GFP-negative) in experiment [8], in experiment [9] and in experiment [11] were 0.69%, 0.91% and 94.9%, respectively. Besides, the % of events in the upper right quadrant (PE-positive, GFP-positive) in [10] amounted to 6.59%; in experiment [12] it was 1.02%.

For the molecule M11 (antibody), the % of events in the upper left quadrant (PE-positive, GFP-negative) in [13] was 2.55%; in [14] it was 1.35%; in experiment [16] it was 95.3%. Moreover, the % of events in the upper right quadrant (PE-positive, GFP-positive) in experiment [15] turned out to be 33.5%; in experiment [17], 1.24%.

B1: 4H11.2.5 (antibody, V domains shown)
VH: VKLQESGGGFVKPGGSLKVSCAASGFTFSSYAMSWVRLSPEMRLEWVATISSAGGYIFYSDSVQGRFTISRDNAKNTLHLQMGSLRSGDTAMYYCARQGFGNYGDYYAMDYWGQGTTVTVSS
VL: DIELTQSPSSLAVSAGEKVTMSCKSSQSLLNSRTRKNQLAWYQQKPGQSPELLIYWASTRQSGVPDRFTGSGSGTDFTLTISSVQAEDLAVYYCQQSYNLLTFGPGTKLEVKR
notes: Mouse monoclonal, IgG2b (parent supernatant IgG2b, IgM); also called 4H11 MAb
Turning to B1, in [18], the binding result is reported as “binds”.

B2: 4A5.37 (antibody, IgG1, V domains shown)
VH: B1 VH with Q4E, V19I, S29R, S30N
VL: B1 VL with P46T, V111I
notes: Mouse monoclonal, IgG1
Turning to B2, the binding result in experiment [18] is given as “binds”.

B3: 12B10-3G10 (antibody, V domains shown)
VH: EVKLEESGGGLVQPKGSLKLSCAASGFTFNTYAVHWVRQAPGKGMEWVARIRSKSGNYATYYADSVKDRFTISRNDSQSMLYLQMNNLKTEDTAIYYCVRAGNNGAFPYWGQGTTVTVSS
VL: DIELTQSPSSLSASLGGRVTITCKASQDIKKYIAWYQHKPGKTPRLLIHFTSTLQTGIPSRFSGRGSGRDYSFSISNLESEDIATYYCLQYDSLYTFGGGTKLEIKR
notes: Mouse mAb against mouse MUC16, IgG 2b; also called mouse 12B10 mAb; 12B10-3F7
For B3, the binding result in [19] is “binds”.
